Results on 91 sequences are retold here after the supplement of paper PMC9112550, “Optimization of the antimicrobial peptide Bac7 by deep mutational scanning” (BMC Biology, 2022).

The series concerns Escherichia coli TOP10. As to the kind of experiment: shrunken log2 fold change of peptide-encoding DNA abundance (4.5 h post-induction vs induction); higher = less antimicrobial activity (less host growth inhibition). Particulars: time post-induction: 4.5 h; library: site-saturation at positions 5, 18, 19, 20.
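Also: peptides expressed intracellularly from a pBAD plasmid library in pooled LB shake-flask culture, induced with 0.3% L-arabinose, DNA abundance read by NGS, three biological replicates, DESeq2 with apeglm shrinkage.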

On to RRIRVRPPRLPRPRPRPGWQPRP, for which the “shrunken log2 fold change” value is 0.545. In the case of RRIRDRPPRLPRPRPRPCMVPRP it was 0.0359. In the case of RRIRTRPPRLPRPRPRPGLGPRP it was 0.466; in that of RRIRQRPPRLPRPRPRPTLYPRP, -0.0318. With RRIRVRPPRLPRPRPRPQEVPRP, the “shrunken log2 fold change” value was -0.186. RRIRDRPPRLPRPRPRPLEQPRP: the “shrunken log2 fold change” value was found to be 0.57. In the case of RRIRHRPPRLPRPRPRPWHWPRP, the “shrunken log2 fold change” value was -0.135. To RRIRGRPPRLPRPRPRPKIMPRP belongs 0.322. To RRIRKRPPRLPRPRPRPMGFPRP belongs -0.00871; to RRIRWRPPRLPRPRPRPMHCPRP, -0.0635; to RRIRERPPRLPRPRPRPRGMPRP, 0.0957. In the case of RRIRYRPPRLPRPRPRPGYPPRP it was -0.299; in that of RRIRMRPPRLPRPRPRPGFRPRP, 0.525.

As for RRIRFRPPRLPRPRPRPGECPRP, the “shrunken log2 fold change” value is -0.228. In the case of RRIRQRPPRLPRPRPRPTWMPRP it was -0.262; in that of RRIRTRPPRLPRPRPRPDALPRP, 0.162. In the case of RRIRNRPPRLPRPRPRPVQLPRP it was 0.176; in that of RRIRTRPPRLPRPRPRPHCCPRP, 0.142. To RRIRYRPPRLPRPRPRPRRAPRP belongs 0.364; to RRIRVRPPRLPRPRPRPVCFPRP, 0.147; to RRIRVRPPRLPRPRPRPNDVPRP, -0.116. Regarding RRIRVRPPRLPRPRPRPIEHPRP, the “shrunken log2 fold change” value was -0.168. To RRIRTRPPRLPRPRPRPVWWPRP belongs 0.423; to RRIRVRPPRLPRPRPRPSWVPRP, -0.32; to RRIRDRPPRLPRPRPRPMWAPRP, -0.0235.

As to RRIRARPPRLPRPRPRPTWPPRP, the “shrunken log2 fold change” value was determined as 1.13. Take RRIRKRPPRLPRPRPRPDSAPRP: the “shrunken log2 fold change” value stood at 0.115.

In the case of RRIRGRPPRLPRPRPRPMHPPRP, the “shrunken log2 fold change” value was -0.104. To RRIRLRPPRLPRPRPRPFLVPRP belongs -0.338; to RRIRVRPPRLPRPRPRPAGTPRP, 0.146; to RRIRHRPPRLPRPRPRPWVEPRP, -0.0959. For the sequence RRIRSRPPRLPRPRPRPQVHPRP, the “shrunken log2 fold change” value was -0.012.

For RRIRWRPPRLPRPRPRPWDAPRP, the “shrunken log2 fold change” value was found to be 0.22. To RRIRKRPPRLPRPRPRPPLWPRP belongs 0.931. To RRIRARPPRLPRPRPRPNMAPRP belongs 0.114; to RRIRGRPPRLPRPRPRPKYGPRP, -0.111; to RRIRTRPPRLPRPRPRPMCWPRP, -0.0846. In the case of RRIRLRPPRLPRPRPRPAVFPRP it was 0.142.

For the sequence RRIRCRPPRLPRPRPRPHHRPRP, the “shrunken log2 fold change” value is -0.266. To RRIRFRPPRLPRPRPRPAAPPRP belongs 0.745; to RRIRFRPPRLPRPRPRPVTRPRP, -0.0263; to RRIRSRPPRLPRPRPRPVHVPRP, -0.0394. For RRIRARPPRLPRPRPRPTGMPRP, the “shrunken log2 fold change” value was 0.52. In the case of RRIRVRPPRLPRPRPRPMMMPRP, the “shrunken log2 fold change” value is -0.0802.

In the case of RRIRERPPRLPRPRPRPPFPPRP, the “shrunken log2 fold change” value is 0.018. In the case of RRIRQRPPRLPRPRPRPGDEPRP it was 0.021; in that of RRIRFRPPRLPRPRPRPFHVPRP, -0.546; in that of RRIRGRPPRLPRPRPRPFTRPRP, 0.0912. In the case of RRIRHRPPRLPRPRPRPQCYPRP it was -0.75; in that of RRIRVRPPRLPRPRPRPDWPPRP, 0.334. In the case of RRIRNRPPRLPRPRPRPNCNPRP it was -0.549; in that of RRIRMRPPRLPRPRPRPNVCPRP, -0.00865. RRIRGRPPRLPRPRPRPPKYPRP: the “shrunken log2 fold change” value amounted to 0.0508. Regarding RRIRARPPRLPRPRPRPVWTPRP, the “shrunken log2 fold change” value turned out to be 0.527.

Consider RRIRIRPPRLPRPRPRPWDSPRP, for which the “shrunken log2 fold change” value was -0.0632. Regarding RRIRDRPPRLPRPRPRPLKTPRP, the “shrunken log2 fold change” value was determined as 0.333. In the case of RRIRSRPPRLPRPRPRPPSMPRP it was 0.13; in that of RRIRMRPPRLPRPRPRPAVTPRP, 0.177; in that of RRIRQRPPRLPRPRPRPRTPPRP, 0.676. To RRIRPRPPRLPRPRPRPTPRPRP belongs 0.769; to RRIRGRPPRLPRPRPRPCQTPRP, 0.0774; to RRIRIRPPRLPRPRPRPHDLPRP, -0.057. In the case of RRIRWRPPRLPRPRPRPNDKPRP it was -0.291; in that of RRIRQRPPRLPRPRPRPSTTPRP, -0.572; in that of RRIRVRPPRLPRPRPRPVEFPRP, 0.0286. In the case of RRIRYRPPRLPRPRPRPNPTPRP, the “shrunken log2 fold change” value turned out to be 0.0161. With RRIRPRPPRLPRPRPRPYWIPRP, the “shrunken log2 fold change” value was -0.509.

As for RRIRFRPPRLPRPRPRPQQMPRP, the “shrunken log2 fold change” value is -0.0245. In the case of RRIRMRPPRLPRPRPRPGMRPRP it was 1.54. In the case of RRIRFRPPRLPRPRPRPDPMPRP it was -0.196; in that of RRIRVRPPRLPRPRPRPHTWPRP, -0.351; in that of RRIRVRPPRLPRPRPRPCCKPRP, 0.905.

Regarding RRIRARPPRLPRPRPRPPCCPRP, the “shrunken log2 fold change” value came to 0.571.

For the sequence RRIRARPPRLPRPRPRPYNTPRP, the “shrunken log2 fold change” value is -0.606.

Regarding RRIRKRPPRLPRPRPRPLDSPRP, the “shrunken log2 fold change” value turned out to be 0.233. In the case of RRIRNRPPRLPRPRPRPSMKPRP it was -0.609.

In the case of RRIRDRPPRLPRPRPRPIPPPRP, the “shrunken log2 fold change” value amounted to 0.239.

For the sequence RRIRMRPPRLPRPRPRPELQPRP, the “shrunken log2 fold change” value was -0.00152. In the case of RRIRHRPPRLPRPRPRPCNFPRP it was -0.74. To RRIRDRPPRLPRPRPRPRGMPRP belongs 0.0251. To RRIRLRPPRLPRPRPRPDDDPRP belongs 0.129. As to RRIRGRPPRLPRPRPRPLVVPRP, the “shrunken log2 fold change” value turned out to be 0.39. To RRIRARPPRLPRPRPRPQSEPRP belongs 0.152. To RRIRLRPPRLPRPRPRPMYLPRP belongs 0.0092; to RRIRWRPPRLPRPRPRPKTFPRP, -0.0777; to RRIRARPPRLPRPRPRPQQWPRP, 0.2.

On to RRIRDRPPRLPRPRPRPMCPPRP, for which the “shrunken log2 fold change” value came to 0.00942. In the case of RRIRRRPPRLPRPRPRPGWWPRP it was 0.478; in that of RRIRIRPPRLPRPRPRPAHKPRP, 0.0491; in that of RRIRTRPPRLPRPRPRPVWIPRP, -0.651. As for RRIRTRPPRLPRPRPRPHNAPRP, the “shrunken log2 fold change” value was -0.391.
